Laboratory results reported in patent publication US20100093618A1.

Molecular target: FLAG-Tat (p3XFLAG-CMV-Tat, wild type) (HIV-1) (UniProt P04608)
Experiment: cell-based or functional assay

## HA-IκB-α 72-287 (pCMV4-HA-IκB-α 72-287, expressed in transfected cells) (from UniProt P25963 72-287)
  translocation of Tat from the nucleus to the cytoplasm (confocal microscopy, HeLa cells) (% of the analyzed cells): 50
